Experimental data: the supplement of paper PMC9170038

Legend:
MS2 coat protein [1] = test: apparent KD of MS2 coat protein, switch OFF state (with FMN for OFF switches, without FMN for ON switches); designed switch direction (-1 OFF switch, 1 ON switch): -1; higher = weaker reporter binding; conditions: FMN input: 0 or 200 uM; Eterna round: R93 (includes R88 designs)
Summary of the method: (§1)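 In 100 mM Tris-HCl pH 7.5 with 80 mM KCl and 4 mM MgCl2, and without or with constant ligand, SNAP-549-labelled MS2 coat protein was titrated in twofold steps from 0.7 or 1.5 nM to 3 µM. Per-step times went from 0.8–1.5 h down to 10–20 min. The RNA switches were transcribed on-chip from Illumina sequencing clusters, and apparent KD is the per-design median of normalised cluster binding-curve fits.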

MS2 coat protein [2] = test: apparent KD of MS2 coat protein, switch ON state; designed switch direction (-1 OFF switch, 1 ON switch): -1; higher = weaker reporter binding; conditions: FMN input: 0 or 200 uM; Eterna round: R93 (includes R88 designs)
Summary of the method: as §1

UGCUAGUCAGGAUAUACGAACAUGUCAAAAGACGUGAAGGGACAUGAGGAUCACCCAUGUAGAAGGGACUAGCA [salish99-Ex2-18]
apparent KD of MS2 coat protein (MS2 coat protein [1]): 121 nM | apparent KD of MS2 coat protein (MS2 coat protein [2]): 37.5 nM

GGAGGGCAAGGAUAUACAUGAGGAUCACCCAUGUGAGAGAAAAAAGUGAGAAAGAAAAGUAGAAGGUGCUUUCG [salish99-ex3-130]
apparent KD of MS2 coat protein (MS2 coat protein [1]): 47.8 nM | apparent KD of MS2 coat protein (MS2 coat protein [2]): 38.8 nM

AAGAACCAAGGAUAUACAUGAAAGAAAGAAAAGAAAAGAAAACAUGAGGAUCACCCAUGUAGAAGGUGGUAGAA [EteRNA is fun!]
apparent KD of MS2 coat protein (MS2 coat protein [1]): 105 nM | apparent KD of MS2 coat protein (MS2 coat protein [2]): 70.2 nM

AGUAGAUCAGGAUAUACAUAAAUGAUAAUUAUGUAAUUUCUACAUGAGGAUCACCCAUGUAGAAGGGAUCUACA [Ex2 Design 136: Not so Super Stable 24]
apparent KD of MS2 coat protein (MS2 coat protein [1]): 15.2 nM | apparent KD of MS2 coat protein (MS2 coat protein [2]): 14.4 nM

AAUAAACAUGAGGAUCACCCAUGUAAGGAUAUCGAAAAAAAAAUAAACAAAAAAAAAACGAGAAGGUACAAAAA [Exclusion 1 design 2]
apparent KD of MS2 coat protein (MS2 coat protein [1]): 27 nM | apparent KD of MS2 coat protein (MS2 coat protein [2]): 24.1 nM

AAAAAUGGAGGAUAUACAUGAGGAUCACCCAUGUGUGGGCAUACUAUGUGGGCGUCAGGUAGAAGGCCAAAAAA [Gilly Gone Silly 25 - Jieux - Exclusion 3]
apparent KD of MS2 coat protein (MS2 coat protein [1]): 273 nM | apparent KD of MS2 coat protein (MS2 coat protein [2]): 93.7 nM

AAAAAACAUGAGGAUCACCCAUGUUAGGAUAUUCCUAAAAAAAAAAAAAAAAAAAAUGGAAGAAGGAACAAAAA [excalibur10]
apparent KD of MS2 coat protein (MS2 coat protein [1]): 30.2 nM | apparent KD of MS2 coat protein (MS2 coat protein [2]): 23.5 nM

AGCUAGUCAGGAUAUACAAACAUGUCAAAAGACGUGAAGGAACAUGAGGAUCACCCAUGUAGAAGGGACUAGCA [Web Mod 74% 3]
apparent KD of MS2 coat protein (MS2 coat protein [1]): 19.5 nM | apparent KD of MS2 coat protein (MS2 coat protein [2]): 21 nM

AACUAGUGAGGAUAUACAAGAAUAUAAACAAAAAUGAAGGGACAUGAGGAUCACCCAUGUAGAAGGCACUAACA [Diamond 71]
apparent KD of MS2 coat protein (MS2 coat protein [1]): 106 nM | apparent KD of MS2 coat protein (MS2 coat protein [2]): 34 nM

AAAAAGUGAGGAUAUCUGGAUAGGAAAAAGAAAACCUAUCCAGAGAAGGCACAUGAGGAUCACCCAUGUAAAAA [JL cataway mod 5]
apparent KD of MS2 coat protein (MS2 coat protein [1]): 41.2 nM | apparent KD of MS2 coat protein (MS2 coat protein [2]): 31.6 nM

AAGGGACAUGAGGAUCACCCAUGUCAGGAUAUGCUAUGGAAAAUAAAAAUAAAACAUAGCAGAAGGGACACCAA [64%, Meechl, 3]
apparent KD of MS2 coat protein (MS2 coat protein [1]): 40.3 nM | apparent KD of MS2 coat protein (MS2 coat protein [2]): 25.9 nM

AACAGUACAGGAUAUACAUGAGGAUCACCCAUGUGAGAAUUAAGUGGCGAACCACAAAGUAGAAGGGUACUGAA [Mat - Exclusion 3 - JL mod - D7]
apparent KD of MS2 coat protein (MS2 coat protein [1]): 181 nM | apparent KD of MS2 coat protein (MS2 coat protein [2]): 45.3 nM

GAAAAACAUGAGGAUCACCCAUGUAAGGAUAUGCUAAAAAACACGGAAAACGUGAAUAGCAGAAGGUACAAAAA [Mat - Exclusion 1 - Eli mod - D86]
apparent KD of MS2 coat protein (MS2 coat protein [1]): 23.6 nM | apparent KD of MS2 coat protein (MS2 coat protein [2]): 20.6 nM

AAAAAGCAAGGAUAUACAUGAGGAUCACCCAUGUGAAAAAAAACAAUAAGAAGAACAAGUAGAAGGUGCAAAAA [Mod of Ex3 Tesla 1 - Jieux - Exclusion 3]
apparent KD of MS2 coat protein (MS2 coat protein [1]): 28.2 nM | apparent KD of MS2 coat protein (MS2 coat protein [2]): 19.5 nM

AACAGUACAGGAUAUACAUGAGGAUCACCCAUGUAGAGAAAAUAAAACAAAAAUAAAAGUAGAAGGGUACUGGA [Ruby 47]
apparent KD of MS2 coat protein (MS2 coat protein [1]): 26.4 nM | apparent KD of MS2 coat protein (MS2 coat protein [2]): 26.6 nM

AUCUUGUCAGGAUAUCGUAUAAUAUGGAAAACAUAGAGAUACGAGAAGGGACAUGAGGAUCACCCAUGUAAAAC [May 97]
apparent KD of MS2 coat protein (MS2 coat protein [1]): 40 nM | apparent KD of MS2 coat protein (MS2 coat protein [2]): 41.7 nM

AAAAACCAAGGAUAUACAUGAGGAUCACCCAUGUAAAAAAAAAAAAAGGGAAAAAAAAGUAGAAGGUGGAAAAA [Sekhemre Shedtawy Sobekemsaf II]
apparent KD of MS2 coat protein (MS2 coat protein [1]): 38.6 nM | apparent KD of MS2 coat protein (MS2 coat protein [2]): 20.9 nM

AUCAUGUUAGGAUAUAAAAGAAAAGAAAAGAAAGAAAAGAAUUAGAAGGAACAUGAGGAUCACCCAUGUAAGAA [EteRNA is fun!]
apparent KD of MS2 coat protein (MS2 coat protein [1]): 26.5 nM | apparent KD of MS2 coat protein (MS2 coat protein [2]): 34.7 nM
